For one substance, fold less VP22 in the histone extract than from peGFP-UL49 cells results are on record in article PMC4063868.

The test has as its target histones (chicken (endogenous in LMH)). The test can be described thus: high-salt co-extraction with histones from chromatin; LMH cells 48 h post-transfection; chromatin pelleted and incubated in 50 mM Tris-HCl pH 8.0, 2.5 M NaCl, 0,05% NP40 for 30 min at 4°C; supernatant (histones fraction) on 10% SDS-PAGE, colloidal coomassie blue and immunoblot with anti-VP22 L13a.

Turning to “VP22 of Marek's disease virus tagged with eGFP at its C-terminus (natural protein)”, the fold less VP22 in the histone extract than from peGFP-UL49 cells worked out at 4.5 fold.
